Source: article doi:10.1101/2024.06.26.600898 (bioRxiv, 2024)

Target: H3(1-282)-strep tag Ⅱ-NGL (monkeypox virus (MPXV))
Experiment: BLI; […]; PBS; 100 s association, 120 s dissociation; global fit
Settings: both partners purified

B1: AI-Poxblock723-strep tag Ⅱ-His8 (designed binder)
chain: MGLKKLQELKKKANELGKKAKEALDKGDFEKAKEYIKKGAEATKEYGELSGNKAAIEDGEKAEEVAEEIVKIAKEEKAKERSGGGGSGGGGS
notes: source: E. coli BL21(DE3), pET30a, purified (STarm Streptactin), exchanged into PBS
With B1 as the binder, how does the Kd read?
Its Kd is 9 µM.
